Assay results: patent US11643691B2, “Predictive biomarkers for cancer immunotherapy and methods of using same” (Duke University, priority 2018, dated 2023)

Legend:
[1] = test system: DCs; assay: Extracellular acidification rate (ECAR), Seahorse XFe24 flux analysis of DCs; assay type: cell-based, Murine
Protocol: Dendritic Cell Conditioning: DCs were treated with Wnt3a (100 ng/mL), Wnt5a (200 ng/mL), LPS (1 μg/mL), 1-MT (1 mM), 2DG (1 mM), or ETO (100 μM), 2-DG(2-deoxy-d-glucose, 1 mM), Oligomycin (1 μM), succinylacetone (250 μM), or vehicle control either for 24 or 48 hrs prior to their use in both in vitro and in vivo experiments.
Cellular Energy Metabolism Analysis: DC energy metabolism was measured using the XFe24 extracellular flux analyzer (Seahorse Bioscience), with the glycolysis stress test kit and the mitochondrial stress test kit as previously described (Everts et al., 2014, Zhao and Klimecki, 2015). For experiments involving LPS injection, DCs were plated in XFe24 plates (200,000/well in 500p1) and treated with LPS for 48 hours prior to XF analysis. DCs were washed and analyzed in XF media (RPMI without sodium bicarbonate, 10 mM glucose, 1% FBS, 2 mM L-glutamine). ECAR was analyzed in real-time with or without LPS stimulation. For experiments involving BrafV600EPten−/− cell line-derived conditioned media (CM), collected CM was concentrated and desalted with an Amicon Ultra 30K filter according to manufacturer's recommendations (Milipore). Final concentrate was further washed with XF media 3 times, added to DCs immediately prior to OCR analysis. For standard ECAR analysis, XF media (without glucose) was used to wash cells prior to the assay. A final concentration of 10 mM glucose, 1 μM oligomycin, 50 mM 2-DG(sigma) were injected through XFe24 port A-C. For standard OCR analysis, XF media (with 10 mM glucose) was used to wash cells, a final concentration of 1 μM oligomycin, 1.5 μM FCCP (fluoro-carbonyl cyanide phenylhydrazone), 100 nM rotenone, and 1 μM of antimycin-A (Sigma) were injected through XFe24 port A-C.

[2] = test system: DCs; assay: qRT-PCR / qPCR array / immunoblot gene expression in DCs; assay type: cell-based, Murine
Protocol: Dendritic Cell Conditioning: DCs were treated with Wnt3a (100 ng/mL), Wnt5a (200 ng/mL), LPS (1 μg/mL), 1-MT (1 mM), 2DG (1 mM), or ETO (100 μM), 2-DG(2-deoxy-d-glucose, 1 mM), Oligomycin (1 μM), succinylacetone (250 μM), […]
Antibodies, Immunoprecipitation, and Immunoblot Analysis: Primary antibodies including CPT1A (Cell signaling), PPAR-γ (Santa Cruz Biotechnology), β-catenin, β-actin (Millipore), p-AMPK(T172)/AMPK (Cell signaling), p-AKT(T308)/Akt (Cell Signaling) were used at 1:1000. Secondary antibodies including goat anti-rabbit IgG-HRP (Millipore) and goat anti-mouse IgG-HRP (Millipore) were used at 1:5000. Cells were lysed in Laemmli sample buffer after treatment and subjected to SDS-polyacrylamide gel electrophoresis and immunoblot analysis. For immunoprecipitation, cells were lysed in radio immunoprecipitation assay (RIPA) buffer [10 mM sodium phosphate (pH 8.0), 150 mM NaCl, 1% Triton X-100, 1% sodium deoxycholate, and 0.1% SDS in the presence of 1 mM DTT, 1 mM phenylmethylsulfonylfluoride, and a protease inhibitor cocktail (Sigma)], precleared with protein A beads, and then incubated with 1 μg of antibody against β-catenin or isotype control IgG with protein A-agarose beads on a rotator overnight at 4° C. After 3 washes with RIPA buffer, immunoprecipitated complexes were eluted in sample buffer by boiling and subjected to immunoblot analysis. Immunoblots were visualized by chemiluminescence substrate (ThermoFisher) and imaged by a ChemiDoc XRSplus system (BioRad).
RNA Isolation, RT-qPCR, qPCR Array: Total RNA was isolated by RNeasy Plus Mini Kit(Qiagen). RNA(500 ng) were used in cDNA Synthesis (iScript, BioRad). Quantification of mRNA for genes involved in PPARγ signaling was performed using Mouse PrimePCR PPAR Array according to the manufacturer's protocol (BioRad). Real-time PCR was performed using an ABI7500 Real-Time PCR system (Life Technologies). Data analysis utilized the PrimePCR Analysis Software (BioRad). Conventional qPCR was performed using validated primers, and SsoAdvanced Universal SYBR Green Super mix (BioRad) or Taqman probes (Applied Biosystems) for heme synthesis enzymes.

[3] = test system: CD8+ T cell proliferation; assay: T cell proliferation assay (CellTrace Violet dilution, OT-1 splenocytes with conditioned DCs); assay type: cell-based, mice; details: DCs pre-treated, LPS stimulated
Protocol: T Cell Proliferation Assay: Splenocytes of OT-1 mice (H-2b) were isolated and stained with CellTrace Violet (ThermoFisher). Preconditioned DCs were loaded with ovalbumin peptide SIINFEKL, and co-cultured at a DC:splenocyte ratio of 40,000:120,000 cells for 72 hrs. CD8+ T cell proliferation was measured by the dilution of Cell Trace Violet dye by flow cytometry.

[4] = test system: DCs; assay: Flow cytometry of DC surface maturation markers; assay type: cell-based, Murine
Protocol: Flow Cytometry: One million cells were stained with 1 μg per million cells of each fluorochrome conjugated antibodies or commercially available dyes according to the standard protocols and analyzed using a FACSCanto II or LSRII (Becton Dickinson).

[5] = test system: DC IDO; assay: IDO enzymatic assay (kynurenine in conditioned media by HPLC); assay type: cell-based, Murine; details: purified DC cultures or tumor-infiltrating DCs
Protocol: (§1) IDO enzymatic assay and Hemin assay: DC IDO enzyme activity was measured by the conversion of L-tryptophan to L-kynurenine in conditioned media by HPLC (Pallotta et al., 2011). Intracellular hemin was measured using a colorimetric assay kit (BioVision).

[6] = test system: DCs; assay: PpIX flow cytometry analysis and hemin colorimetric assay; assay type: cell-based, Murine
Protocol: as §1
PpIX Analysis: DCs were terminally incubated in the presence of 1 mM δ-aminolevulinic acid (ALA) for 4 hrs. Intracellular PpIX was analyzed by flow cytometry as previously described (Hryhorenko et al., 1998).

B1: Wnt5a: Recombinant Human/Mouse Wnt5a Protein (R&D Systems) (protein, UniProt P41221 62-380, looked up)
Protein Wnt-5a: IIGAQPLCSQLAGLSQGQKKLCHLYQDHMQYIGEGAKTGIKECQYQFRHRRWNCSTVDNTSVFGRVMQIGSRETAFTYAVSAAGVVNAMSRACREGELSTCGCSRAARPKDLPRDWLWGGCGDNIDYGYRFAKEFVDARERERIHAKGSYESARILMNLHNNEAGRRTVYNLADVACKCHGVSGSCSLKTCWLQLADFRKVGDALKEKYDSAAAMRLNSRGKLVQVNSRFNSPTTQDLVYIDPSPDYCVRNESTGSLGTQGRLCNKTSEGMDGCELMCCGRGYDQFKTVQTERCHCKFHWCCYVKCKKCTEIVDQFVCK
[1]; DCs pre-treated
  LPS-induced glycolytic surge (ECAR): suppressed the lipopolysaccharide (LPS)-induced glycolytic surge
[1]; within 90 min of stimulation
  glycolysis (ECAR) acutely after stimulation: failed to impact glycolysis
[2]; qRT-PCR
  IL-6 and IL-12 expression in primary DCs: suppresses IL-6 and IL-12 expression in primary DCs
  expression of Alas1 and further enzymes of PpIX synthesis: upregulated expression of Alas1 and several additional enzymes involved in PpIX synthesis
  expression of TCA cycle enzymes (Idh1, Idh2, Oghd, Dld, Dlst): stimulated the expression of isocitrate dehydrogenase
[2]; qRT-PCR, after 4-8 hr of stimulation
  expression of hexokinase (Hk) and phosphofructokinase-1 (Pfk1): downregulated the expression of the rate-limiting glycolytic enzymes
[2]; real-time qPCR and immunoblot, murine and human DCs for rWnt5a
  PPAR-γ (Pparg) and CPT1A (Cpt1a) expression: induces upregulation of Pparg and Cpt1a
[3]
  LPS-induced DC-mediated antigen-specific T cell proliferation: suppresses LPS-induced DC-mediated antigen-specific T cell proliferation
[4]
  DC surface maturation markers / co-stimulatory receptors: absence of any alterations in DC surface maturation markers
[5]
  DC IDO enzymatic activity (kynurenine): promoted DC IDO enzymatic activity
[6]
  DC concentrations of PpIX and hemin: enhanced DC concentrations of the PpIX prosthetic group and its downstream degradation product, hemin
